Each block holds one binder with its values, some of them ahead of it.
Assays:
[1] = molecular target: T1, Recombinant Human DLL4 (R&D Systems Cat#1506-D4/CF) (human, UniProt Q9NR61 27-524); experiment: Multispot ECL (MSD), antigen spotted on plate, Fab 580 nM; blank spot 679
T1 construct: Bought recombinant protein; also called rHuman DLL4; delta-like protein 4

[2] = molecular target: T2, rHuman ErbB2/Fc Chimera, CF (R&D Systems Cat#1129-ER) (human, UniProt P04626 23-652); experiment: as above
T2 construct: Bought recombinant protein; also called human epidermal growth factor 2 receptor; Fc part of the bought chimera not given

[3] = molecular target: T3, rHuman EGF R/Fc Chimera, CF (R&D Systems Cat#344-ER) (human, UniProt P00533 25-645); experiment: as above
T3 construct: Bought recombinant protein; also called epidermal growth factor receptor; Fc part of the bought chimera not given

[4] = molecular target: T4, rHuman HGF R/c-MET/Fc Chimera, CF (R&D Systems Cat#358-MT/CF) (human, UniProt P08581 25-932); experiment: as above
T4 construct: Bought recombinant protein; also called HGF R/Fc; hepatocyte growth factor receptor; Fc part of the bought chimera not given
T4 sequence (P08581 25-932, change not shown): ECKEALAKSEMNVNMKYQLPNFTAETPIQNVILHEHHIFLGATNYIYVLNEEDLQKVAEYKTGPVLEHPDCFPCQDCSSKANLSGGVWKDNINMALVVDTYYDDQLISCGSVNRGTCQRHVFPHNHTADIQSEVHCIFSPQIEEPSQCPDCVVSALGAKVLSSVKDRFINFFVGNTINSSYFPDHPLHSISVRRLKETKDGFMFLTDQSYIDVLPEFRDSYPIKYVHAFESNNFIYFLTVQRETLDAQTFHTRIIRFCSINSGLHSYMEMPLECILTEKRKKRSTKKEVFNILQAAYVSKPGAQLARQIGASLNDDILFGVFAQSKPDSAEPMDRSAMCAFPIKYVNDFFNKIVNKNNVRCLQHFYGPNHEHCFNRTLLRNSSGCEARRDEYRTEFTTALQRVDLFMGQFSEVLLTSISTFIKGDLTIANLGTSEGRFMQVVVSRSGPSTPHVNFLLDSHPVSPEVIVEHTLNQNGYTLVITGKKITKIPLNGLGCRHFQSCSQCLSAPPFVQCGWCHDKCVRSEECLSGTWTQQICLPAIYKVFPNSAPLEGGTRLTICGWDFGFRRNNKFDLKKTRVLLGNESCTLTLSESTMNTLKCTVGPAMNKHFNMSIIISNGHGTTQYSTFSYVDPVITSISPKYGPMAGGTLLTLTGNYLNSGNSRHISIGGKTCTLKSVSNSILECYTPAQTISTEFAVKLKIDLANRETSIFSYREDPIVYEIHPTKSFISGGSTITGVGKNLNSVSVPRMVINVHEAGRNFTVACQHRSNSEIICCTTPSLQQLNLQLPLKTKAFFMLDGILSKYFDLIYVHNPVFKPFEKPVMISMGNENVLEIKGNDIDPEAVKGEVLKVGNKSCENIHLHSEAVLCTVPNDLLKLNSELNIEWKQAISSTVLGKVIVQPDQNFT

[5] = molecular target: T5, rHuman IGF-1 sR, (IGF-1 sR), CF (R&D Systems Cat#391-GR) (human, UniProt P08069 31-932); experiment: as above
T5 construct: Bought recombinant soluble receptor; also called insulin-like growth factor-1 soluble receptor

[6] = molecular target: T1, Recombinant Human DLL4 (R&D Systems …); experiment: Multispot ECL (MSD), antigen spotted on plate, Fab 145 nM; blank spot 357
[7] = molecular target: T3, rHuman EGF R/Fc Chimera, CF (R&D …); experiment: as above
[8] = molecular target: T4, rHuman HGF R/c-MET/Fc Chimera, CF (R&D …); experiment: as above
[9] = molecular target: T5, rHuman IGF-1 sR, (IGF-1 sR), CF (R&D …); experiment: as above
[10] = molecular target: T1, Recombinant Human DLL4 (R&D Systems …); experiment: Multispot ECL (MSD), antigen spotted on plate, Fab 36.3 nM; blank spot 314
[11] = molecular target: T2, rHuman ErbB2/Fc Chimera, CF (R&D …); experiment: as above
[12] = molecular target: T3, rHuman EGF R/Fc Chimera, CF (R&D …); experiment: as above
[13] = molecular target: T4, rHuman HGF R/c-MET/Fc Chimera, CF (R&D …); experiment: as above
[14] = molecular target: T5, rHuman IGF-1 sR, (IGF-1 sR), CF (R&D …); experiment: as above
[15] = molecular target: T1, Recombinant Human DLL4 (R&D Systems …); experiment: Multispot ECL (MSD), antigen spotted on plate, Fab 9.1 nM; blank spot 276
[16] = molecular target: T2, rHuman ErbB2/Fc Chimera, CF (R&D …); experiment: as above
[17] = molecular target: T3, rHuman EGF R/Fc Chimera, CF (R&D …); experiment: as above
[18] = molecular target: T4, rHuman HGF R/c-MET/Fc Chimera, CF (R&D …); experiment: as above
[19] = molecular target: T5, rHuman IGF-1 sR, (IGF-1 sR), CF (R&D …); experiment: as above
[20] = molecular target: T6, Recombinant Human DLL4 (R&D Systems Cat#1506-D4/CF) (human, UniProt Q9NR61 27-524); experiment: control in the Notch reporter assay; binding assay not described
T6 construct: bought recombinant protein; also called rHuman DLL4; delta-like protein 4

[21] = molecular target: T6, Recombinant Human DLL4 (R&D Systems …); experiment: Multispot ECL titration
[22] = molecular target: T7, rHuman IGF-1 sR, CF (R&D Systems Cat#391-GR) (human, UniProt P08069 31-932); experiment: Multispot ECL
T7 construct: bought soluble receptor; also called insulin-like growth factor-1 soluble receptor

- ECL signal at 580 nM Fab [1]: 4420
- ECL signal at 580 nM Fab [2]: 1710
- ECL signal at 580 nM Fab [3]: 1630
- ECL signal at 580 nM Fab [4]: 2340
- ECL signal at 580 nM Fab [5]: 1360
- ECL signal at 145 nM Fab [6]: 2140
- ECL signal at 145 nM Fab [7]: 856
- ECL signal at 145 nM Fab [8]: 1170
- ECL signal at 145 nM Fab [9]: 794
- ECL signal at 36.3 nM Fab [10]: 1400
- ECL signal at 36.3 nM Fab [11]: 1030
- ECL signal at 36.3 nM Fab [12]: 831
- ECL signal at 36.3 nM Fab [13]: 1060
- ECL signal at 36.3 nM Fab [14]: 799
- ECL signal at 9.1 nM Fab [15]: 1030
- ECL signal at 9.1 nM Fab [16]: 987
- ECL signal at 9.1 nM Fab [17]: 800
- ECL signal at 9.1 nM Fab [18]: 894
- ECL signal at 9.1 nM Fab [19]: 788
B1: Fab VH4-34_IGHD7-27*01_IGHJ4*01 & V1-4_IGLJ4*01 (Fab, V domains shown)
VH: QVQLQQWGAGLLKPSETLSLTCAVYGGSFSGYYWSWIRQPPGKGLEWIGEINHSGSTNYNPSLKSRVTISVDTSKNQFSLKLSSVTAADTAVYYCARANWGDYFDYWGQGTLVTVSS
VL: QSALTQPASVSGSPGQSITISCTGTSSDVGGYNYVSWYQQHPGKAPKLMIYEVSNRPSGVSNRFSGSKSGNTASLTISGLQAEDEADYYCSSYTSSSTLFVFGGGTQLIIL
notes: Tested as a Fab made in E. coli; The heavy chain variable region was cloned into Plasmid A (CH1 constant region, His6 and Flag tags); The lambda light chain variable region was cloned into Plasmid E (lambda CL); Only the variable domains are tied to this Fab by name

- binding result [20]: no binding
B2: control Fab VH6-1_IGHD6-13*01_IGHJ4*01 and V2-17_IGLJ2*01 (Fab, V domains shown)
VH: QVQLQQSGPGLVKPSQTLSLTCAISGDSVSSNSAAWNWIRQSPSRGLEWLGRTYYRSKWYNDYAVSVKSRITINPDTSKNQFSLQLNSVTPEDTAVYYCAREGYSSSWYDYFDYWGQGTLVTVSS
VL: SYELTQPPSVSVSPGQTARITCSGDALPKQYAYWYQQKPGQAPVLVIYKDSERPSGIPERFSGSSSGTTVTLTISGVQAEDEADYYCQSADSSGTYPVVFGGGTKLTVL

- fold binding affinity against the parent antibody [21]: 10 fold
- binding result [22]: no binding
B3: Fab VH1-46_IGHD6-6*01_IGHJ1*01 S102A/S103P/S104F & L6_IGKJ1*01 (Fab, V domains shown)
VH: QVQLVQSGAEVKKPGASVKVSCKASGYTFTSYYMHWVRQAPGQGLEWMGIINPSGGSTSYAQKFQGRVTMTRDTSTSTVYMELSSLRSEDTAVYYCAREEYAPFSAEYFQHWGQGTLVTVSS
VL: not shown
notes: Fab; also called H:APF & L:wt; APF triple mutant

Reference: patent publication US20120316071A1 (published 2012)
